Results published in patent publication US20110166062A1 (INDIANA UNIVERSITY RESEARCH AND TECHNOLOGY, published 2011).
Bridges are numbered along the chain shown (N, C = ends). Primed or numbered codes have the meaning given here. Where no end group is shown, it is not given here. Side-chain parts run from the residue outwards. [ ]: non-standard residue; d: D form. maleimide = maleimide group on activated PEG, it reacts with the Cys thiol (Michael addition) to give a thioether linkage; PEG 40 kDa″ = polyethylene glycol of 40 kDa covalently attached to the side chain; PEG 40 kDa = PEG (40 kDa) covalently attached to Cys; Aib = CC(C)(N)C(=O)O

T1: GIP receptor (UniProt P48546 22-466)
T1 sequence (looked up): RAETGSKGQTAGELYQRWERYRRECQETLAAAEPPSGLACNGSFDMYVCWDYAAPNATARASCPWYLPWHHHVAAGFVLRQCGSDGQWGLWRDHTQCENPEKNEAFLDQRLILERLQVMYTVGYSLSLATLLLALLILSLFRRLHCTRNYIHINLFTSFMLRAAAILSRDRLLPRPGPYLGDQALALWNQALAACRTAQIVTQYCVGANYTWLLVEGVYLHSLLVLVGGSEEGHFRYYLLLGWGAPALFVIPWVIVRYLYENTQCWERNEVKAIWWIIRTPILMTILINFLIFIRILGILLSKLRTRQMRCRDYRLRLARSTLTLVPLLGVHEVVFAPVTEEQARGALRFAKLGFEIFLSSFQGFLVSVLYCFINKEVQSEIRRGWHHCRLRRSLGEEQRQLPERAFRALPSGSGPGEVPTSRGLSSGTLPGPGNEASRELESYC

B1: mt-186 (peptide)
peptide: Y[Aib]QGTFTSDYSIYLDEQAAKEFVC(PEG 40 kDa″)WLMNG-NH2
modifications: lactam 16-20
B2: mt-175 (peptide)
peptide: Y[Aib]QGTFTSDYSIYLDEQAAKEFVC(PEG 40 kDa)WLLAGGPSSGAPPPS-NH2
modifications: lactam 16-20
B3: mt-197 (peptide)
peptide: GTFTSDYSIYLDEQAAKEFVNWLLAG-NH2
modifications: lactam 13-17; N-terminus assumed
SMILES: CC[C@H](C)[C@H](NC(=O)[C@H](CO)NC(=O)[C@H](Cc1ccc(O)cc1)NC(=O)[C@H](CC(=O)O)NC(=O)[C@H](CO)NC(=O)[C@@H](NC(=O)[C@H](Cc1ccccc1)NC(=O)[C@@H](NC(=O)CN)[C@@H](C)O)[C@@H](C)O)C(=O)N[C@@H](Cc1ccc(O)cc1)C(=O)N[C@@H](CC(C)C)C(=O)N[C@@H](CC(=O)O)C(=O)N[C@H]1CCC(=O)NCCCC[C@@H](C(=O)N[C@@H](CCC(=O)O)C(=O)N[C@@H](Cc2ccccc2)C(=O)N[C@H](C(=O)N[C@@H](CC(N)=O)C(=O)N[C@@H](Cc2c[nH]c3ccccc23)C(=O)N[C@@H](CC(C)C)C(=O)N[C@@H](CC(C)C)C(=O)N[C@@H](C)C(=O)NCC(N)=O)C(C)C)NC(=O)[C@H](C)NC(=O)[C@H](C)NC(=O)[C@H](CCC(N)=O)NC1=O
B4: mt-178 (peptide)
peptide: Y[Aib]EGTFTSDYSIYLDEQAAKEFVNWLLAGGPSSGAPPPSC([maleimide-PEG 40 kDa])-NH2
modifications: lactam 16-20
B5: mt-198 (peptide)
peptide: [Aib]QGTFTSDYSIYLDEQAAKEFVNWLLAG-NH2
modifications: lactam 15-19; N-terminus assumed
SMILES: CC[C@H](C)[C@H](NC(=O)[C@H](CO)NC(=O)[C@H](Cc1ccc(O)cc1)NC(=O)[C@H](CC(=O)O)NC(=O)[C@H](CO)NC(=O)[C@@H](NC(=O)[C@H](Cc1ccccc1)NC(=O)[C@@H](NC(=O)CNC(=O)[C@H](CCC(N)=O)NC(=O)C(C)(C)N)[C@@H](C)O)[C@@H](C)O)C(=O)N[C@@H](Cc1ccc(O)cc1)C(=O)N[C@@H](CC(C)C)C(=O)N[C@@H](CC(=O)O)C(=O)N[C@H]1CCC(=O)NCCCC[C@@H](C(=O)N[C@@H](CCC(=O)O)C(=O)N[C@@H](Cc2ccccc2)C(=O)N[C@H](C(=O)N[C@@H](CC(N)=O)C(=O)N[C@@H](Cc2c[nH]c3ccccc23)C(=O)N[C@@H](CC(C)C)C(=O)N[C@@H](CC(C)C)C(=O)N[C@@H](C)C(=O)NCC(N)=O)C(C)C)NC(=O)[C@H](C)NC(=O)[C@H](C)NC(=O)[C@H](CCC(N)=O)NC1=O
B6: mt-174 (peptide)
peptide: Y[Aib]EGTFTSDYSIYLDEQAAKEFVNWLLAGGPSSGAPPPSC-NH2
modifications: lactam 16-20; N-terminus assumed
SMILES: CC[C@H](C)[C@H](NC(=O)[C@H](CO)NC(=O)[C@H](Cc1ccc(O)cc1)NC(=O)[C@H](CC(=O)O)NC(=O)[C@H](CO)NC(=O)[C@@H](NC(=O)[C@H](Cc1ccccc1)NC(=O)[C@@H](NC(=O)CNC(=O)[C@H](CCC(=O)O)NC(=O)C(C)(C)NC(=O)[C@@H](N)Cc1ccc(O)cc1)[C@@H](C)O)[C@@H](C)O)C(=O)N[C@@H](Cc1ccc(O)cc1)C(=O)N[C@@H](CC(C)C)C(=O)N[C@@H](CC(=O)O)C(=O)N[C@H]1CCC(=O)NCCCC[C@@H](C(=O)N[C@@H](CCC(=O)O)C(=O)N[C@@H](Cc2ccccc2)C(=O)N[C@H](C(=O)N[C@@H](CC(N)=O)C(=O)N[C@@H](Cc2c[nH]c3ccccc23)C(=O)N[C@@H](CC(C)C)C(=O)N[C@@H](CC(C)C)C(=O)N[C@@H](C)C(=O)NCC(=O)NCC(=O)N2CCC[C@H]2C(=O)N[C@@H](CO)C(=O)N[C@@H](CO)C(=O)NCC(=O)N[C@@H](C)C(=O)N2CCC[C@H]2C(=O)N2CCC[C@H]2C(=O)N2CCC[C@H]2C(=O)N[C@@H](CO)C(=O)N[C@@H](CS)C(N)=O)C(C)C)NC(=O)[C@H](C)NC(=O)[C@H](C)NC(=O)[C@H](CCC(N)=O)NC1=O
B7: mt-172 (peptide)
peptide: Y[Aib]QGTFTSDYSIYLDEQAAKEFVC(PEG 40 kDa)WLLAG-NH2
modifications: lactam 16-20
B8: mt-191 (peptide)
peptide: Y[Aib]QGTFTSDYSIYLDEQAAKEFVNWLLAGGPSSGAPPPS-NH2
modifications: N-terminus assumed
SMILES: CC[C@H](C)[C@H](NC(=O)[C@H](CO)NC(=O)[C@H](Cc1ccc(O)cc1)NC(=O)[C@H](CC(=O)O)NC(=O)[C@H](CO)NC(=O)[C@@H](NC(=O)[C@H](Cc1ccccc1)NC(=O)[C@@H](NC(=O)CNC(=O)[C@H](CCC(N)=O)NC(=O)C(C)(C)NC(=O)[C@@H](N)Cc1ccc(O)cc1)[C@@H](C)O)[C@@H](C)O)C(=O)N[C@@H](Cc1ccc(O)cc1)C(=O)N[C@@H](CC(C)C)C(=O)N[C@@H](CC(=O)O)C(=O)N[C@@H](CCC(=O)O)C(=O)N[C@@H](CCC(N)=O)C(=O)N[C@@H](C)C(=O)N[C@@H](C)C(=O)N[C@@H](CCCCN)C(=O)N[C@@H](CCC(=O)O)C(=O)N[C@@H](Cc1ccccc1)C(=O)N[C@H](C(=O)N[C@@H](CC(N)=O)C(=O)N[C@@H](Cc1c[nH]c2ccccc12)C(=O)N[C@@H](CC(C)C)C(=O)N[C@@H](CC(C)C)C(=O)N[C@@H](C)C(=O)NCC(=O)NCC(=O)N1CCC[C@H]1C(=O)N[C@@H](CO)C(=O)N[C@@H](CO)C(=O)NCC(=O)N[C@@H](C)C(=O)N1CCC[C@H]1C(=O)N1CCC[C@H]1C(=O)N1CCC[C@H]1C(=O)N[C@@H](CO)C(N)=O)C(C)C
B9: mt-176 (peptide)
peptide: Y[Aib]QGTFISDYSIYLDEQAAKEFVNWLLAGGPSSGAPPPSC-NH2
modifications: lactam 16-20
B10: mt-194 (peptide)
peptide: [Aib]QGTFTSDYSIYLDEEAVRLFVNWLLAGGPSSGAPPPS-NH2
modifications: N-terminus assumed
SMILES: CC[C@H](C)[C@H](NC(=O)[C@H](CO)NC(=O)[C@H](Cc1ccc(O)cc1)NC(=O)[C@H](CC(=O)O)NC(=O)[C@H](CO)NC(=O)[C@@H](NC(=O)[C@H](Cc1ccccc1)NC(=O)[C@@H](NC(=O)CNC(=O)[C@H](CCC(N)=O)NC(=O)C(C)(C)N)[C@@H](C)O)[C@@H](C)O)C(=O)N[C@@H](Cc1ccc(O)cc1)C(=O)N[C@@H](CC(C)C)C(=O)N[C@@H](CC(=O)O)C(=O)N[C@@H](CCC(=O)O)C(=O)N[C@@H](CCC(=O)O)C(=O)N[C@@H](C)C(=O)N[C@H](C(=O)N[C@@H](CCCNC(=N)N)C(=O)N[C@@H](CC(C)C)C(=O)N[C@@H](Cc1ccccc1)C(=O)N[C@H](C(=O)N[C@@H](CC(N)=O)C(=O)N[C@@H](Cc1c[nH]c2ccccc12)C(=O)N[C@@H](CC(C)C)C(=O)N[C@@H](CC(C)C)C(=O)N[C@@H](C)C(=O)NCC(=O)NCC(=O)N1CCC[C@H]1C(=O)N[C@@H](CO)C(=O)N[C@@H](CO)C(=O)NCC(=O)N[C@@H](C)C(=O)N1CCC[C@H]1C(=O)N1CCC[C@H]1C(=O)N1CCC[C@H]1C(=O)N[C@@H](CO)C(N)=O)C(C)C)C(C)C
B11: mt-182 (peptide)
peptide: Y[Aib]QGTFISDYSIYLDEQAAKEFVNWLLAGGPSSGAPPPSC(PEG 40 kDa)-NH2
modifications: lactam 16-20

The binders below were run against glucagon receptor (UniProt P47871 26-477, limits assumed) (assay: cell-based or functional assay).
glucagon receptor, sequence (P47871 26-477 limits assumed): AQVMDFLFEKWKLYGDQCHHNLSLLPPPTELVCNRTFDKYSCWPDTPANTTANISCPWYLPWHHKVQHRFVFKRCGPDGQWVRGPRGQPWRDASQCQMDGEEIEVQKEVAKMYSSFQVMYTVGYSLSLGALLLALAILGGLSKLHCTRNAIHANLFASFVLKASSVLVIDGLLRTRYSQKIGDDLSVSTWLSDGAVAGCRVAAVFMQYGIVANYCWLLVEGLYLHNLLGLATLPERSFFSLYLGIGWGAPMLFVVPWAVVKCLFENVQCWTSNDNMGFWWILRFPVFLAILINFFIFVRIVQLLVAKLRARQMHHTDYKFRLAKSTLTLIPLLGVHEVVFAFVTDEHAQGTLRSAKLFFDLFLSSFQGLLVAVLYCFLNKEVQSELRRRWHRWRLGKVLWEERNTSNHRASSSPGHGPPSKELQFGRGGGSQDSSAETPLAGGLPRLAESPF

Point of comparison: B4, “EC50” value 8.25 nM. Against it:
- B1 — 5.2-fold lower, 1.58 nM
- B2 — 3.4-fold lower, 2.42 nM
- B3 — 5.8-fold higher, 47.7 nM
- B5 — within 1.5-fold, 11.9 nM
- B6 — 7-fold higher, 57.5 nM
- B7 — within 1.5-fold, 9.16 nM
- B8 — 5.7-fold lower, 1.46 nM
- B9 — 59-fold lower, 0.141 nM

Point of comparison: B3, relative activity 0.13%. Against it:
- B1 — higher, 2.22%
- B2 — higher, 1.49%
- B4 — higher, 0.42%
- B5 — higher, 0.53%
- B6 — lower, 0.06%
- B7 — higher, 0.45%
- B8 — higher, 4.32%

These binders were tested against GLP-1 receptor (UniProt P43220 24-463, limits assumed) (assay: cell-based or functional assay).

Point of comparison: B5, “EC50” value 13.2 nM. Against it:
- B10 — 3.2-fold lower, 4.16 nM
- B1 — 26-fold lower, 0.5 nM
- B2 — 60-fold lower, 0.22 nM
- B3 — 2.7-fold higher, 35.3 nM
- B11 — within 1.5-fold, 10 nM
- B4 — 77-fold lower, 0.171 nM
- B6 — 780-fold lower, 0.017 nM
- B7 — 15-fold lower, 0.859 nM
- B8 — 1200-fold lower, 0.011 nM
- B9 — 1.5-fold lower, 8.69 nM

Point of comparison: B3, relative activity 0.07%. Against it:
- B10 — higher, 0.63%
- B1 — higher, 2.8%
- B2 — higher, 5.91%
- B4 — higher, 8.19%
- B5 — higher, 0.17%
- B6 — higher, 118%
- B7 — higher, 3.43%
- B8 — higher, 209%

Each binder was assayed against T1, GIP receptor (assay: cell-based or functional assay).

Point of comparison: B5, “EC50” value 149 nM. Against it:
- B1 — 9.8-fold lower, 15.2 nM
- B2 — 77-fold lower, 1.93 nM
- B11 — 1900-fold lower, 0.08 nM
- B4 — 330-fold lower, 0.448 nM
- B6 — 6500-fold lower, 0.023 nM
- B7 — 20-fold lower, 7.54 nM
- B8 — 790-fold lower, 0.189 nM
- B9 — 2700-fold lower, 0.055 nM

Point of comparison: B7, relative activity 0.25%. Against it:
- B1 — lower, 0.14%
- B2 — higher, 0.93%
- B4 — higher, 4.69%
- B5 — lower, 0.02%
- B6 — higher, 95.7%
- B8 — higher, 16.9%
